Numbered stars: 1 amine (or outer) side, 2 acyl side, 3 side chain; on linkers, the order of the positions; unused ones are H or OH. Square brackets hold non-standard residues; d marks the D form. Phe(3R-OH) = O=C([C@@H](N[*:1])[C@H](O[*:3])c1ccccc1)[*:2]; Phe(3-Me) = Cc1cccc(C[C@H](N)C(=O)O)c1; Phe(4-Me) = Cc1ccc(C[C@H](N)C(=O)O)cc1; Phe(2-Me) = Cc1ccccc1C[C@H](N)C(=O)O; Arg(Me) = CNC(=N)NCCC[C@H](N)C(=O)O; Hyp = O=C(O)[C@@H]1C[C@@H](O)CN1; αMeF = C[C@](N)(Cc1ccccc1)C(=O)O; Dab = NCC[C@H](N)C(=O)O; Dap = NC[C@H](N)C(=O)O; azaGly = NNC(=O)O
Target: human OT7T175 (metastin receptor) (human) (UniProt Q969F8)
Experiment: cell-based or functional assay

human OT7T175 (metastin receptor) (human), sequence (Q969F8 whole entry L364H): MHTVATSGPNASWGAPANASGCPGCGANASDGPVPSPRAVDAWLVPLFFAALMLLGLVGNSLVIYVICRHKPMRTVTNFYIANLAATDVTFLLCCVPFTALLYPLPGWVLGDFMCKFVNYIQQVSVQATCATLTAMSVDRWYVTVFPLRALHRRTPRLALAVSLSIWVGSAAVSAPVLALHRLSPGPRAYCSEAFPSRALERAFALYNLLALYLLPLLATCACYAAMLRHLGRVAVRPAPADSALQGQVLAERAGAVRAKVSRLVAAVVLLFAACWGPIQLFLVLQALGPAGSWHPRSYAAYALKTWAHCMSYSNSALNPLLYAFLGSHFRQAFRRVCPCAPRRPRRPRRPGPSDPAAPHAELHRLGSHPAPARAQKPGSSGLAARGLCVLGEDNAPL

Row | Binder | intracellular Ca ion level-increasing activity [specific activity to Metastin (1-54)] (relative to Metastin (1-54))
1 | Ac-[dY][Hyp]NT[Phe(2-Me)][azaGly]L[Arg(Me)]W-NH2 (SMILES CNC(=N)NCCC[C@H](NC(=O)[C@H](CC(C)C)NC(=O)NNC(=O)[C@H](Cc1ccccc1C)NC(=O)[C@@H](NC(=O)[C@H](CC(N)=O)NC(=O)[C@@H]1C[C@@H](O)CN1C(=O)[C@@H](Cc1ccc(O)cc1)NC(C)=O)[C@@H](C)O)C(=O)N[C@@H](Cc1c[nH]c2ccccc12)C(N)=O) [des(1)-Ac-[D-Tyr2,Hyp3,Thr5,Phe(2Me)6,AzaGly7,Arg(Me)9,Trp10]MS10] | 0.6
2 | Ac-[dY][Hyp][Dap]TF[azaGly]L[Arg(Me)]W-NH2 (SMILES CNC(=N)NCCC[C@H](NC(=O)[C@H](CC(C)C)NC(=O)NNC(=O)[C@H](Cc1ccccc1)NC(=O)[C@@H](NC(=O)[C@H](CN)NC(=O)[C@@H]1C[C@@H](O)CN1C(=O)[C@@H](Cc1ccc(O)cc1)NC(C)=O)[C@@H](C)O)C(=O)N[C@@H](Cc1c[nH]c2ccccc12)C(N)=O) [des(1)-Ac-[D-Tyr2,Hyp3,Dap4,Thr5,AzaGly7,Arg(Me)9,Trp10]MS10] | 0.9
3 | Ac-[dY][Hyp][Dab]TF[azaGly]L[Arg(Me)]W-NH2 (SMILES CNC(=N)NCCC[C@H](NC(=O)[C@H](CC(C)C)NC(=O)NNC(=O)[C@H](Cc1ccccc1)NC(=O)[C@@H](NC(=O)[C@H](CCN)NC(=O)[C@@H]1C[C@@H](O)CN1C(=O)[C@@H](Cc1ccc(O)cc1)NC(C)=O)[C@@H](C)O)C(=O)N[C@@H](Cc1c[nH]c2ccccc12)C(N)=O) [des(1)-Ac-[D-Tyr2,Hyp3,Dab4,Thr5,AzaGly7,Arg(Me)9,Trp10]MS10] | 1

More lines, now with the values ahead:

Row | intracellular Ca ion level-increasing activity [specific activity to Metastin (1-54)] (relative to Metastin (1-54)) | Binder
4 | 1 | Ac-[dY][Hyp]NT[Phe(3R-OH)][azaGly]L[Arg(Me)]W-NH2 (SMILES CNC(=N)NCCC[C@H](NC(=O)[C@H](CC(C)C)NC(=O)NNC(=O)[C@@H](NC(=O)[C@@H](NC(=O)[C@H](CC(N)=O)NC(=O)[C@@H]1C[C@@H](O)CN1C(=O)[C@@H](Cc1ccc(O)cc1)NC(C)=O)[C@@H](C)O)[C@H](O)c1ccccc1)C(=O)N[C@@H](Cc1c[nH]c2ccccc12)C(N)=O) [des(1)-Ac-[D-Tyr2,Hyp3,Thr5,threo-Ser(3Phenyl)6,AzaGly7,Arg(Me)9,Trp10]MS10]
5 | 0.7 | Ac-[dY][Hyp]NT[Phe(3-Me)][azaGly]L[Arg(Me)]W-NH2 (SMILES CNC(=N)NCCC[C@H](NC(=O)[C@H](CC(C)C)NC(=O)NNC(=O)[C@H](Cc1cccc(C)c1)NC(=O)[C@@H](NC(=O)[C@H](CC(N)=O)NC(=O)[C@@H]1C[C@@H](O)CN1C(=O)[C@@H](Cc1ccc(O)cc1)NC(C)=O)[C@@H](C)O)C(=O)N[C@@H](Cc1c[nH]c2ccccc12)C(N)=O) [des(1)-Ac-[D-Tyr2,Hyp3,Thr5,Phe(3Me)6,AzaGly7,Arg(Me)9,Trp10]MS10]
6 | 1.4 | Ac-[dY][Hyp]NT[αMeF][azaGly]L[Arg(Me)]W-NH2 (SMILES CNC(=N)NCCC[C@H](NC(=O)[C@H](CC(C)C)NC(=O)NNC(=O)[C@](C)(Cc1ccccc1)NC(=O)[C@@H](NC(=O)[C@H](CC(N)=O)NC(=O)[C@@H]1C[C@@H](O)CN1C(=O)[C@@H](Cc1ccc(O)cc1)NC(C)=O)[C@@H](C)O)C(=O)N[C@@H](Cc1c[nH]c2ccccc12)C(N)=O) [des(1)-Ac-[D-Tyr2,Hyp3,Thr5,αMePhe6,AzaGly7,Arg(Me)9,Trp10]MS10]
7 | 0.8 | Ac-[dY][Hyp]NT[Phe(4-Me)][azaGly]L[Arg(Me)]W-NH2 (SMILES CNC(=N)NCCC[C@H](NC(=O)[C@H](CC(C)C)NC(=O)NNC(=O)[C@H](Cc1ccc(C)cc1)NC(=O)[C@@H](NC(=O)[C@H](CC(N)=O)NC(=O)[C@@H]1C[C@@H](O)CN1C(=O)[C@@H](Cc1ccc(O)cc1)NC(C)=O)[C@@H](C)O)C(=O)N[C@@H](Cc1c[nH]c2ccccc12)C(N)=O) [des(1)-Ac-[D-Tyr2,Hyp3,Thr5,Phe(4Me)6,AzaGly7,Arg(Me)9,Trp10]MS10]
